Biological target: recombinant TdfH (Neisseria gonorrhoeae TonB-dependent transporter, NGO0952) (Neisseria gonorrhoeae)
Test: ITC; Nano ITC, 25°C, 1x PBS with 0.05% DDM; TdfH (300 μl, 20 μM) in the cell, CP sample (200 μM) in 20 injections of 2.5 μl; fitted with NanoAnalyze to a two-state (multisite) model, TKO to a single-site model

“mouse calprotectin (heterodimer of mouse S100A8 and S100A9) (from UniProt P27005 1-89; P31725 1-113) (complex)” gave a KD, higher affinity (two-state model) of 0.72 µM and a KD, lower affinity (two-state model) of 51 µM.
